In paper PMC3579193, “Elucidation of relaxin-3 binding interactions in the extracellular loops of RXFP3” (Frontiers in Endocrinology, 2013):

B1: mono-Eu-labeled relaxin-3 agonist H3 relaxin B-chain, INSL5 A chain (H3/I5) [modified: mono-Eu label on the peptide; chain and site not stated] [not stated | human] / HA-tagged human RXFP3 (HA-RXFP3) [human] (parent complex)
chain 1: RAAPYGVRLCGREFIRAVIFTCGGSRW
chain 2: QDLQTLCCTDGCSMTDLSALC
chain 3: QMADAATIATMNKAAGGDKLAELFSLVPDLLEAANTSGNASLQLPDLWWELGLELPDGAPPGHPPGSGGAESADTEARVRILISVVYWVVCALGLAGNLLVLYLMKSMQGWRKSSINLFVTNLALTDFQFVLTLPFWAVENALDFKWPFGKAMCKIVSMVTSMNMYASVFFLTAMSVTRYHSVASALKSHRTRGHGRGDCCGRSLGDSCCFSAKALCVWIWALAALASLPSAIFSTTVKVMGEELCLVRFPDKLLGRDRQFWLGLYHSQKVLLGFVLPLGIIILCYLLLVRFIADRRAAGTKGGAAVAGGRPTGASARRLSKVTKSVTIVVLSFFLCWLPNQALTTWSILIKFNAVPFSQEYFLCQVYAFPVSVCLAHSNSCLNPVLYCLVRREFRKALKSLLWRIASPSITSMRPFTATTKPEHEDQGLQAPAPPHAAAEPDLLYYPPGVVVYSGGRYDLLPSSSAY

Variants of: B1
Assay: Eu-H3/I5 binding on cells, normalized to cell surface expression; read off a plot

Variant	percent of parent
chain 3 QMADAATIATMNKAAGGDKLAELFSLVPDLLEAANTSGNASLQLPDLWWELGLELPDGAPPGHPPGSGGAESADTEARVRILISVVYWVVCALGLAGNLLVLYLMKSMQGWRKSSINLFVTNLALTDFQFVLTLPFWAVANALAFKWPFGKAMCKIVSMVTSMNMYASVFFLTAMSVTRYHSVASALKSHRTRGHGRGDCCGRSLGDSCCFSAKALCVWIWALAALASLPSAIFSTTVKVMGEELCLVRFPDKLLGRDRQFWLGLYHSQKVLLGFVLPLGIIILCYLLLVRFIADRRAAGTKGGAAVAGGRPTGASARRLSKVTKSVTIVVLSFFLCWLPNQALTTWSILIKFNAVPFSQEYFLCQVYAFPVSVCLAHSNSCLNPVLYCLVRREFRKALKSLLWRIASPSITSMRPFTATTKPEHEDQGLQAPAPPHAAAEPDLLYYPPGVVVYSGGRYDLLPSSSAY [chain 3 E140A, chain 3 D144A]	~6 % of RXFP3 binding
chain 3 QMADAATIATMNKAAGGDKLAELFSLVPDLLEAANTSGNASLQLPDLWWELGLELPDGAPPGHPPGSGGAASADTEARVRILISVVYWVVCALGLAGNLLVLYLMKSMQGWRKSSINLFVTNLALTDFQFVLTLPFWAVENALDFKWPFGKAMCKIVSMVTSMNMYASVFFLTAMSVTRYHSVASALKSHRTRGHGRGDCCGRSLGDSCCFSAKALCVWIWALAALASLPSAIFSTTVKVMGEELCLVRFPDKLLGRDRQFWLGLYHSQKVLLGFVLPLGIIILCYLLLVRFIADRRAAGTKGGAAVAGGRPTGASARRLSKVTKSVTIVVLSFFLCWLPNQALTTWSILIKFNAVPFSQEYFLCQVYAFPVSVCLAHSNSCLNPVLYCLVRREFRKALKSLLWRIASPSITSMRPFTATTKPEHEDQGLQAPAPPHAAAEPDLLYYPPGVVVYSGGRYDLLPSSSAY [chain 3 E71A]	~110 % of RXFP3 binding
chain 3 QMADAATIATMNKAAGGDKLAELFSLVPDLLEAANTSGNASLQLPDLWWELGLELPDGAPPGHPPGSGGAESADTEARVRILISVVYWVVCALGLAGNLLVLYLMKSMQGWRKSSINLFVTNLALTDFQFVLTLPFWAVENALAFKWPFGKAMCKIVSMVTSMNMYASVFFLTAMSVTRYHSVASALKSHRTRGHGRGDCCGRSLGDSCCFSAKALCVWIWALAALASLPSAIFSTTVKVMGEELCLVRFPDKLLGRDRQFWLGLYHSQKVLLGFVLPLGIIILCYLLLVRFIADRRAAGTKGGAAVAGGRPTGASARRLSKVTKSVTIVVLSFFLCWLPNQALTTWSILIKFNAVPFSQEYFLCQVYAFPVSVCLAHSNSCLNPVLYCLVRREFRKALKSLLWRIASPSITSMRPFTATTKPEHEDQGLQAPAPPHAAAEPDLLYYPPGVVVYSGGRYDLLPSSSAY [chain 3 D144A]	~9.5 % of RXFP3 binding
chain 3 QMADAATIATMNKAAGGDKLAELFSLVPDLLEAANTSGNASLQLPDLWWELGLELPDGAPPGHPPGSGGAESADTEARVRILISVVYWVVCALGLAGNLLVLYLMKSMQGWRKSSINLFVTNLALTDFQFVLTLPFWAVENALDFKWPFGKAMCKIVSMVTSMNMYASVFFLTAMSVTRYHSVASALKSHRTRGHGRGDCCGRSLGDSCCFSAKALCVWIWALAALASLPSAIFSTTVKVMGEELCLVRFPDKLLGRARQFWLGLYHSQKVLLGFVLPLGIIILCYLLLVRFIADRRAAGTKGGAAVAGGRPTGASARRLSKVTKSVTIVVLSFFLCWLPNQALTTWSILIKFNAVPFSQEYFLCQVYAFPVSVCLAHSNSCLNPVLYCLVRREFRKALKSLLWRIASPSITSMRPFTATTKPEHEDQGLQAPAPPHAAAEPDLLYYPPGVVVYSGGRYDLLPSSSAY [chain 3 D258A]	~79 % of RXFP3 binding
chain 3 QMADAATIATMNKAAGGDKLAELFSLVPDLLEAANTSGNASLQLPDLWWELGLALPAGAPPGHPPGSGGAESADTEARVRILISVVYWVVCALGLAGNLLVLYLMKSMQGWRKSSINLFVTNLALTDFQFVLTLPFWAVENALDFKWPFGKAMCKIVSMVTSMNMYASVFFLTAMSVTRYHSVASALKSHRTRGHGRGDCCGRSLGDSCCFSAKALCVWIWALAALASLPSAIFSTTVKVMGEELCLVRFPDKLLGRDRQFWLGLYHSQKVLLGFVLPLGIIILCYLLLVRFIADRRAAGTKGGAAVAGGRPTGASARRLSKVTKSVTIVVLSFFLCWLPNQALTTWSILIKFNAVPFSQEYFLCQVYAFPVSVCLAHSNSCLNPVLYCLVRREFRKALKSLLWRIASPSITSMRPFTATTKPEHEDQGLQAPAPPHAAAEPDLLYYPPGVVVYSGGRYDLLPSSSAY [chain 3 E54A, chain 3 D57A]	~130 % of RXFP3 binding
chain 3 QMADAATIATMNKAAGGDKLAELFSLVPDLLEAANTSGNASLQLPDLWWELGLELPDGAPPGHPPGSGGAESAATEARVRILISVVYWVVCALGLAGNLLVLYLMKSMQGWRKSSINLFVTNLALTDFQFVLTLPFWAVENALDFKWPFGKAMCKIVSMVTSMNMYASVFFLTAMSVTRYHSVASALKSHRTRGHGRGDCCGRSLGDSCCFSAKALCVWIWALAALASLPSAIFSTTVKVMGEELCLVRFPDKLLGRDRQFWLGLYHSQKVLLGFVLPLGIIILCYLLLVRFIADRRAAGTKGGAAVAGGRPTGASARRLSKVTKSVTIVVLSFFLCWLPNQALTTWSILIKFNAVPFSQEYFLCQVYAFPVSVCLAHSNSCLNPVLYCLVRREFRKALKSLLWRIASPSITSMRPFTATTKPEHEDQGLQAPAPPHAAAEPDLLYYPPGVVVYSGGRYDLLPSSSAY [chain 3 D74A]	~81 % of RXFP3 binding
chain 3 QMADAATIATMNKAAGGDKLAELFSLVPDLLEAANTSGNASLQLPALWWALGLELPDGAPPGHPPGSGGAESADTEARVRILISVVYWVVCALGLAGNLLVLYLMKSMQGWRKSSINLFVTNLALTDFQFVLTLPFWAVENALDFKWPFGKAMCKIVSMVTSMNMYASVFFLTAMSVTRYHSVASALKSHRTRGHGRGDCCGRSLGDSCCFSAKALCVWIWALAALASLPSAIFSTTVKVMGEELCLVRFPDKLLGRDRQFWLGLYHSQKVLLGFVLPLGIIILCYLLLVRFIADRRAAGTKGGAAVAGGRPTGASARRLSKVTKSVTIVVLSFFLCWLPNQALTTWSILIKFNAVPFSQEYFLCQVYAFPVSVCLAHSNSCLNPVLYCLVRREFRKALKSLLWRIASPSITSMRPFTATTKPEHEDQGLQAPAPPHAAAEPDLLYYPPGVVVYSGGRYDLLPSSSAY [chain 3 D46A, chain 3 E50A]	~99 % of RXFP3 binding
chain 3 QMADAATIATMNKAAGGDKLAELFSLVPDLLEAANTSGNASLQLPDLWWELGLELPDGAPPGHPPGSGGAESADTEARVRILISVVYWVVCALGLAGNLLVLYLMKSMQGWRKSSINLFVTNLALTDFQFVLTLPFWAVENALDFKWPFGKAMCKIVSMVTSMNMYASVFFLTAMSVTRYHSVASALKSHRTRGHGRGDCCGRSLGDSCCFSAKALCVWIWALAALASLPSAIFSTTVKVMGEELCLVRFPAKLLGRDRQFWLGLYHSQKVLLGFVLPLGIIILCYLLLVRFIADRRAAGTKGGAAVAGGRPTGASARRLSKVTKSVTIVVLSFFLCWLPNQALTTWSILIKFNAVPFSQEYFLCQVYAFPVSVCLAHSNSCLNPVLYCLVRREFRKALKSLLWRIASPSITSMRPFTATTKPEHEDQGLQAPAPPHAAAEPDLLYYPPGVVVYSGGRYDLLPSSSAY [chain 3 D252A]	~96 % of RXFP3 binding
chain 3 QMADAATIATMNKAAGGDKLAELFSLVPDLLEAANTSGNASLQLPDLWWELGLELPDGAPPGHPPGSGGAESADTEARVRILISVVYWVVCALGLAGNLLVLYLMKSMQGWRKSSINLFVTNLALTDFQFVLTLPFWAVENALDFKWPFGKAMCKIVSMVTSMNMYASVFFLTAMSVTRYHSVASALKSHRTRGHGRGDCCGRSLGDSCCFSAKALCVWIWALAALASLPSAIFSTTVKVMGAELCLVRFPDKLLGRDRQFWLGLYHSQKVLLGFVLPLGIIILCYLLLVRFIADRRAAGTKGGAAVAGGRPTGASARRLSKVTKSVTIVVLSFFLCWLPNQALTTWSILIKFNAVPFSQEYFLCQVYAFPVSVCLAHSNSCLNPVLYCLVRREFRKALKSLLWRIASPSITSMRPFTATTKPEHEDQGLQAPAPPHAAAEPDLLYYPPGVVVYSGGRYDLLPSSSAY [chain 3 E243A]	~15 % of RXFP3 binding
chain 3 QMADAATIATMNKAAGGDKLAELFSLVPDLLEAANTSGNASLQLPDLWWELGLELPDGAPPGHPPGSGGAESADTEARVRILISVVYWVVCALGLAGNLLVLYLMKSMQGWRKSSINLFVTNLALTDFQFVLTLPFWAVENALDFKWPFGKAMCKIVSMVTSMNMYASVFFLTAMSVTRYHSVASALKSHRTRGHGRGDCCGRSLGDSCCFSAKALCVWIWALAALASLPSAIFSTTVKVMGEELCLVRFPDKLLGRDRQFWLGLYHSQKVLLGFVLPLGIIILCYLLLVRFIADRRAAGTKGGAAVAGGRPTGASARRLSKVTKSVTIVVLSFFLCWLPNQALTTWSILIKFNAVPFSQAYFLCQVYAFPVSVCLAHSNSCLNPVLYCLVRREFRKALKSLLWRIASPSITSMRPFTATTKPEHEDQGLQAPAPPHAAAEPDLLYYPPGVVVYSGGRYDLLPSSSAY [chain 3 E361A]	~77 % of RXFP3 binding
chain 3 QMADAATIATMNKAAGGDKLAELFSLVPDLLEAANTSGNASLQLPDLWWELGLELPDGAPPGHPPGSGGAESADTEARVRILISVVYWVVCALGLAGNLLVLYLMKSMQGWRKSSINLFVTNLALTDFQFVLTLPFWAVANALDFKWPFGKAMCKIVSMVTSMNMYASVFFLTAMSVTRYHSVASALKSHRTRGHGRGDCCGRSLGDSCCFSAKALCVWIWALAALASLPSAIFSTTVKVMGEELCLVRFPDKLLGRDRQFWLGLYHSQKVLLGFVLPLGIIILCYLLLVRFIADRRAAGTKGGAAVAGGRPTGASARRLSKVTKSVTIVVLSFFLCWLPNQALTTWSILIKFNAVPFSQEYFLCQVYAFPVSVCLAHSNSCLNPVLYCLVRREFRKALKSLLWRIASPSITSMRPFTATTKPEHEDQGLQAPAPPHAAAEPDLLYYPPGVVVYSGGRYDLLPSSSAY [chain 3 E140A]	~5.5 % of RXFP3 binding
